Here are results for 1 molecule from patent publication US20250092135A1 (NANJING LEADS BIOLABS, published 2025).

This assay addresses T1, Human MUC16-His (human).
T1 construct: The entry includes the C-terminal 6xHis tag; also called membrane-proximal end of the extracellular region of the human MUC16 protein; Human MUC16 protein
T1 chain: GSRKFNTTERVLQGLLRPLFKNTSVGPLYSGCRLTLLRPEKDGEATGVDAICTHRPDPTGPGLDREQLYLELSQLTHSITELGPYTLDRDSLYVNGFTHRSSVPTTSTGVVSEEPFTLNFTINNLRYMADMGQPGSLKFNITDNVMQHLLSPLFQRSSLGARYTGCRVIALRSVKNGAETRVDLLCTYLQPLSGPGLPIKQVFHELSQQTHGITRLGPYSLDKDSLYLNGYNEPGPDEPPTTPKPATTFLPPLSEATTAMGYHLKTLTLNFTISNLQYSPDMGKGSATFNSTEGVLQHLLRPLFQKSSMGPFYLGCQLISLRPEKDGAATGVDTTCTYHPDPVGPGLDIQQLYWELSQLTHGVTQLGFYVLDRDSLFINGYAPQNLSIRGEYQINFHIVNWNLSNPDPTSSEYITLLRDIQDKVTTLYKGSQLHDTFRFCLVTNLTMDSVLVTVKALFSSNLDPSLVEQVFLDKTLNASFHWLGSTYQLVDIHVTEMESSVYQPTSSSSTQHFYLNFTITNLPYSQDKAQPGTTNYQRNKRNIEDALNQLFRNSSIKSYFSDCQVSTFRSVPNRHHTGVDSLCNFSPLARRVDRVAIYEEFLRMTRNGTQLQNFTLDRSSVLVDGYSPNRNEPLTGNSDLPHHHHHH
Briefly: BLI (ForteBio Octet RED96), antibody on AHC sensor, 1:1 model. (In general: BLI is a label-free optical method that tracks binding on a fibre tip over time.)

B1: humanized anti-MUC16 antibody Hu-L4H7 (antibody, human IgG1, kappa, L234A L235A, V domains shown)
VH: QVQLVQSGAEVKKPGASVKVSCKASGYTFTDYNIHWVRQAPGQGLEWMGYIYPYNGVSDYNQNFKSRVTMTTDTSTSTAYMELRSLRSDDTAVYYCARWDFGSGYYFDYWGQGTLVTVSS
VL: EIVLTQSPATLSLSPGERATLSCRASSSVIYMSWYQQKPGQAPRLLIYGTSTLASGIPARFSGSGSGTDFTLTISSLEPEDFAVYYCQQWSSNPFTFGQGTKLEIKR
notes: human IgG1 with L234A, L235A, D265A, P329A and kappa; Biotinylated in the CA125 ELISA; also called humanized MUC-16 antibody
In general, Kd refers to a measure of binding affinity in units of concentration. Read a low Kd as higher affinity. What is called koff is a measure of how fast the partners let go of each other. Usually kon stands for the rate constant with which the complex forms. A low value points to slower complex formation. Take B1: the Kd was 2.9 nM, the off-rate constant (koff) stood at 0.000911 s⁻¹ and the kon was found to be 314000 M⁻¹ s⁻¹.
